Experiments:
Grb2 SH2 = Grb2 SH2 (UniProt P62993); assay: SH2 binding enrichment of the phosphorylated peptide, bacterial display (enrichment ratio); higher = better substrate or ligand; peptides without Tyr show the background
c-Src SH2 = assay: as above
SHP2-C SH2 = assay: as above
Fes = Fes (UniProt P07332); assay: phosphorylation enrichment, bacterial display (enrichment ratio); higher = better substrate or ligand; peptides without Tyr show the background
c-Abl (mouse) = assay: as above
EPHB1 = EPHB1 (UniProt P54762); assay: as above
EPHB2 = EPHB2 (UniProt P29323); assay: as above
Fyn = Fyn (UniProt P06241); assay: as above
Sequence of Fyn (P06241 whole entry, looked up): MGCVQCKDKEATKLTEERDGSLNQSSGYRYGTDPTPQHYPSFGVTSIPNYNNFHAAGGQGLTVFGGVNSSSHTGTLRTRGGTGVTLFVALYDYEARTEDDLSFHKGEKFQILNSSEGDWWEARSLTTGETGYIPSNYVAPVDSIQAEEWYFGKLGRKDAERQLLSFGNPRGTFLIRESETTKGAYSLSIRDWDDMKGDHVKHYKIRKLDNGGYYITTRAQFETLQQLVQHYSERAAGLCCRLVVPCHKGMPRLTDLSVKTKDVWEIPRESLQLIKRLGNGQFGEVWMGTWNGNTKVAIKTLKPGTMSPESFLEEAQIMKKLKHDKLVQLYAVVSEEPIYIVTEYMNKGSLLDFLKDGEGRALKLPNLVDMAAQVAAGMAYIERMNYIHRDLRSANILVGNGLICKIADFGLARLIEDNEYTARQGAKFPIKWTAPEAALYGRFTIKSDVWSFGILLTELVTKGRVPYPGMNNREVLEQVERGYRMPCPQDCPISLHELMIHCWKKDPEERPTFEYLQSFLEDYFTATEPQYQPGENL

c-Src = assay: as above
Hck = Hck (UniProt P08631); assay: as above
Sequence of Hck (P08631 whole entry, looked up): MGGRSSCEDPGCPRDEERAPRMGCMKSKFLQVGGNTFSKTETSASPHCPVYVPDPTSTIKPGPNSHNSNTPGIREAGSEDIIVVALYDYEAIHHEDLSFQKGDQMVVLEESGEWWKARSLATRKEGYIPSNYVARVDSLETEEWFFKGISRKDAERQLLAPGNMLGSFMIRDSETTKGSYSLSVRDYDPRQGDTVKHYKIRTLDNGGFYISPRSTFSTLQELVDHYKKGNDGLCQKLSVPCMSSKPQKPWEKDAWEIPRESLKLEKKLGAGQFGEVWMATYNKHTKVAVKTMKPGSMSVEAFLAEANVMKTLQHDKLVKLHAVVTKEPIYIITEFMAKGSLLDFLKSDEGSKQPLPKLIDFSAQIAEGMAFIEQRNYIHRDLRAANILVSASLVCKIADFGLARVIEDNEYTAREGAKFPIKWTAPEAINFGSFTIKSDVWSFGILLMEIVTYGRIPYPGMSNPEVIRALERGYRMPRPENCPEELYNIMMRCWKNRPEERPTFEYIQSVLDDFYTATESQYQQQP

AncSZ = assay: as above
Fer (mouse) = assay: as above
FGFR3 = FGFR3 (UniProt P22607); assay: as above
Sequence of FGFR3 (P22607 whole entry, looked up): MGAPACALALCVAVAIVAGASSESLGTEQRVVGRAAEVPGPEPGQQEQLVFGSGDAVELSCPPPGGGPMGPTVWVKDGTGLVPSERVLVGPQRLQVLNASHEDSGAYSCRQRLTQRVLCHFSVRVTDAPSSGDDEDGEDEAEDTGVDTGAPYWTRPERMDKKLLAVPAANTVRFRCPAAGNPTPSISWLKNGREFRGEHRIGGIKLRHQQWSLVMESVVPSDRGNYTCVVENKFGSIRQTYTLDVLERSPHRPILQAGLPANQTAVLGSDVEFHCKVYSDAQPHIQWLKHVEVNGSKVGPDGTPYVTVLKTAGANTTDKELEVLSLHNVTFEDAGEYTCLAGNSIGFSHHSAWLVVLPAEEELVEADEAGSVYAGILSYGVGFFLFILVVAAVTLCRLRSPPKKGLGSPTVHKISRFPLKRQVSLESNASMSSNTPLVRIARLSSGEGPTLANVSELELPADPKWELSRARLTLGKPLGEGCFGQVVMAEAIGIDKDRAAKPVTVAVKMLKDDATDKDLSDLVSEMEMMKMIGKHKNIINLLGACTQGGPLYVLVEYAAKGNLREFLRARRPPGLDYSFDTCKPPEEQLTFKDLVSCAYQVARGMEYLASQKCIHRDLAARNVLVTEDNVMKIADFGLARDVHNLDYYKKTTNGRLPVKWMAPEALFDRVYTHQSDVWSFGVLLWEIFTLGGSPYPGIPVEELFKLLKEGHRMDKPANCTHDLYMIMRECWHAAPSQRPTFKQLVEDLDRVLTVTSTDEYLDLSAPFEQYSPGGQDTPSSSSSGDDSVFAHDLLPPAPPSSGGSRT

MERTK = MERTK (UniProt Q12866); assay: as above
Jak2 = Jak2 (UniProt O60674); assay: as above
Sequence of Jak2 (O60674 whole entry, looked up): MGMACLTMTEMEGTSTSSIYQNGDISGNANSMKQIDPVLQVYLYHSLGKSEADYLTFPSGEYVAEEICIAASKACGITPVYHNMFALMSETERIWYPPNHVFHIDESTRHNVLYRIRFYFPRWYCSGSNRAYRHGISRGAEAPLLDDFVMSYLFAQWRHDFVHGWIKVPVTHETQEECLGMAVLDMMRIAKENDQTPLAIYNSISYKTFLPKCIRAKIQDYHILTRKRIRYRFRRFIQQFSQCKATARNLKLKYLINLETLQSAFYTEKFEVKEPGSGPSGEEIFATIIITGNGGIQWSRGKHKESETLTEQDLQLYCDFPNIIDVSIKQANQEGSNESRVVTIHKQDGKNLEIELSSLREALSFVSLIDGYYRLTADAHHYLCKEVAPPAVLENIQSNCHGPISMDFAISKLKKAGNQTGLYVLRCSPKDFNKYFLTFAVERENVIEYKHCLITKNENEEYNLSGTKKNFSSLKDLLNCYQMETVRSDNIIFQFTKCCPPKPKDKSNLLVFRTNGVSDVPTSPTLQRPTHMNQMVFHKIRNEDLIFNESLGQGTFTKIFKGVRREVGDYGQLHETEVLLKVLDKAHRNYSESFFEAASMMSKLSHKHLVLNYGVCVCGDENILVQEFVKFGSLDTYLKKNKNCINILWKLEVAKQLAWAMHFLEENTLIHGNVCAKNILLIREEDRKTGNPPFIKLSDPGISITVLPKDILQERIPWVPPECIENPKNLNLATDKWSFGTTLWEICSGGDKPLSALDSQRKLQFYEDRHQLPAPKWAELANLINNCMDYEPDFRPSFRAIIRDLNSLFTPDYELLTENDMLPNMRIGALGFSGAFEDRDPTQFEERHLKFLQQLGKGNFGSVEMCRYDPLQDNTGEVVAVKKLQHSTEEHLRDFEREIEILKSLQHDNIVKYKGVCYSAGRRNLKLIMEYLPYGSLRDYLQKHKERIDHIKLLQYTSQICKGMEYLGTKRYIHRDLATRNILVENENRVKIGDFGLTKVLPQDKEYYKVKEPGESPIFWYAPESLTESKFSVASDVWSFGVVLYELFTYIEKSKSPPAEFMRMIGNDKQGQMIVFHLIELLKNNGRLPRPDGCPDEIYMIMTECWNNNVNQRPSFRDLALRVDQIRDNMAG

FGFR1 = FGFR1 (UniProt P11362); assay: as above
Sequence of FGFR1 (P11362 whole entry, looked up, the tested form may be a part): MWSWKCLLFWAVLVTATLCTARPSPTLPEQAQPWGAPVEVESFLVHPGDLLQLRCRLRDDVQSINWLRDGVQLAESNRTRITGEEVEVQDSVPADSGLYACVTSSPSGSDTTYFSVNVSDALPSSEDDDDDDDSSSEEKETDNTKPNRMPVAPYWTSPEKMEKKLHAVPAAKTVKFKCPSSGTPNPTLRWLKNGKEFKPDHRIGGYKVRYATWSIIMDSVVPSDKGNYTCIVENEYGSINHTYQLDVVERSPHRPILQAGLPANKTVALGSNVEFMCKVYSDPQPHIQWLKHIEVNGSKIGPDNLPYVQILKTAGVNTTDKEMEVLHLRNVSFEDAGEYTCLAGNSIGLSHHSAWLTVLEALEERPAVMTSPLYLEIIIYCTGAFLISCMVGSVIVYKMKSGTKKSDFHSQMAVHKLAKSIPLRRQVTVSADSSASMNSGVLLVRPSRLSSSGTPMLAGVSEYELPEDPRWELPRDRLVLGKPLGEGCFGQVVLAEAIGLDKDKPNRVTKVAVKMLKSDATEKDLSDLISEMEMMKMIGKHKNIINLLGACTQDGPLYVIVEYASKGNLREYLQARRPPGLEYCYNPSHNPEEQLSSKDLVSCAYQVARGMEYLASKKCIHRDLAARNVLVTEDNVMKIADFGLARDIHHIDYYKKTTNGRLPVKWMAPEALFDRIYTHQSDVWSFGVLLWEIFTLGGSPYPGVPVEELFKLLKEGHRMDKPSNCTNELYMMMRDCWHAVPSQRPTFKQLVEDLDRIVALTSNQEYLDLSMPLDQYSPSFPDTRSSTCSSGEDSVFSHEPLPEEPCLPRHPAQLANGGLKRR
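Throughout, for SH2 binding enrichment of the phosphorylated peptide, bacterial display: peptide library displayed on the E. coli surface as eCPX fusions, selected cells deep-sequenced, score is each peptide's frequency after selection divided by its frequency in the input.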
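Throughout, for phosphorylation enrichment, bacterial display: 11-residue human phosphosite peptides and single-mutation variants displayed on the E. coli surface, counted by deep sequencing, each peptide's frequency after selection divided by its frequency in the unselected input library; frequency after pTyr selection over input frequency; kinase dosed for 20-30% of maximal phosphorylation in three min.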

Sequence of Grb2 SH2 (P62993 whole entry, looked up): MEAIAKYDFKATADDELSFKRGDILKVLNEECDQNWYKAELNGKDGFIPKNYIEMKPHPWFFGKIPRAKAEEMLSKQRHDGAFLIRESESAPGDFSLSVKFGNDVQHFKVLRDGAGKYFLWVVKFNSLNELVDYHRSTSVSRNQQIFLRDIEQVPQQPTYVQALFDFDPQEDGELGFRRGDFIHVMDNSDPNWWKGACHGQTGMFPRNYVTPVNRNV
Sequence of Fes (P07332 whole entry, looked up): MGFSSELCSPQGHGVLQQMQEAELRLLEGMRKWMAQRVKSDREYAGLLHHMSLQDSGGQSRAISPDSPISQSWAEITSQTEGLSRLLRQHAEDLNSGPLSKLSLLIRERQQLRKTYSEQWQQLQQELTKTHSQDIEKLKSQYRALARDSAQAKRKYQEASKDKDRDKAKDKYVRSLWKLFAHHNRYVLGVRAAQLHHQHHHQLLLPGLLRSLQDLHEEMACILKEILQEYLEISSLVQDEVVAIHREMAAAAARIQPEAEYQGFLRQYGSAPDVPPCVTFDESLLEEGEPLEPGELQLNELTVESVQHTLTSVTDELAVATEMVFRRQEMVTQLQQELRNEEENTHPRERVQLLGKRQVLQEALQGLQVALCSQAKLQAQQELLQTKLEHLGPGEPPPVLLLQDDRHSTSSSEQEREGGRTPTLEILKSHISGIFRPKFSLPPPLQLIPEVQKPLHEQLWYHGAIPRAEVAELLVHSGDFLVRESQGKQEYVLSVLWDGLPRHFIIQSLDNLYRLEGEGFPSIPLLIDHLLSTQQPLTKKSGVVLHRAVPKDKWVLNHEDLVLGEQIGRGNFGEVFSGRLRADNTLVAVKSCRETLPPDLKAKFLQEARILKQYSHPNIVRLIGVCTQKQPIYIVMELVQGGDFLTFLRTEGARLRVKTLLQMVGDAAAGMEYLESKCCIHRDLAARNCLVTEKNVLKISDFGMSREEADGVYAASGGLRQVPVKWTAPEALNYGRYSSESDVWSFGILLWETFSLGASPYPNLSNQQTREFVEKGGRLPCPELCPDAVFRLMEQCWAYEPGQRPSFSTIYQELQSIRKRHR

Sequence	SH2 binding enrichment (Grb2 SH2)	SH2 binding enrichment (c-Src SH2)	SH2 binding enrichment (SHP2-C SH2)	phosphorylation enrichment (Fes)	phosphorylation enrichment (c-Abl (mouse))	phosphorylation enrichment (EPHB1)	phosphorylation enrichment (EPHB2)	phosphorylation enrichment (Fyn)	phosphorylation enrichment (c-Src)	phosphorylation enrichment (Hck)	phosphorylation enrichment (AncSZ)	phosphorylation enrichment (Fer (mouse))	phosphorylation enrichment (FGFR3)	phosphorylation enrichment (MERTK)	phosphorylation enrichment (Jak2)	phosphorylation enrichment (FGFR1)
FDNSVYQKTTE [LDLR_Y828_P826S]	0.808	0.768	0.559	0.913	0.701	0.487	0.488	0.515	0.657	0.668	0.924	0.374	0.641	0.432	0.673	0.51
GLIPAYHWVIM [NMNAT1_Y64_R66W]	0.878	0.535	0.52	1.25	0.92	0.755	0.731	0.503	0.526	0.543	1.49	5.52	6.04	1.8	1.68	8.56
GGFNNYGFGSD [HNRNPH3_Y159_N163S_YF]	0.753	0.47	0.744	0.762	0.575	0.7	0.812	0.458	0.426	0.454	0.656	0.39	0.533	0.474	0.68	0.48
VEKGSYSALRA [ABCC2_Y845_L849R]	0.823	0.555	1.04	0.551	0.438	0.348	0.296	0.34	0.314	0.351	0.43	0.338	0.396	0.325	0.551	0.356
GPSTPYTKSKR [SMARCC2_Y324]	0.746	0.505	0.758	0.511	0.651	0.322	0.299	0.405	0.452	0.319	0.408	0.324	0.362	0.353	0.497	0.363
QKINNYLTVPA [SLC9A1_Y683]	0.469	0.376	0.573	0.727	0.833	1.34	0.706	0.508	0.524	0.689	0.618	0.497	0.445	0.65	0.615	0.758
FIGVTYKNEED [PDGFRA_Y993_YF]	1.31	0.555	0.571	1.11	0.649	0.565	0.484	0.432	0.491	0.451	1.02	0.49	0.629	0.336	0.92	0.584
INITIYGKTFH [EFHC1_Y177_R182H]	1.15	0.47	0.781	1.44	0.958	0.546	0.513	0.519	0.468	0.544	1.11	0.579	0.817	0.473	1.08	0.429
IGERTYGQVYK [CDK13_Y716_G714R]	0.866	0.565	0.675	0.555	0.536	0.409	0.416	9.16	6.07	3.64	0.507	0.392	0.41	0.408	0.516	0.381
ESMNIYLQTSP [NAT1_Y208_T207I]	0.829	0.441	0.455	1.05	0.812	0.752	0.697	0.847	1.06	1.05	1.21	0.635	0.87	0.618	1.17	0.674
YRTGHYLCNAC [GATA1_Y223_D218Y]	1.01	0.968	1.12	0.506	0.524	0.341	0.415	0.383	0.31	0.376	0.477	0.271	0.41	0.355	0.424	0.412
YPPDGYSRHCE [CTNND1_Y213_Y217C]	0.9	0.693	0.666	0.941	0.738	0.461	0.487	0.585	0.462	0.555	0.883	0.514	0.568	0.505	0.816	0.496
KVPELYEIHKE [BCR_Y554]	0.996	0.701	0.751	1.08	0.714	0.93	0.868	0.631	0.603	0.853	1.03	0.976	0.817	0.619	0.766	0.593
AIGFEYSEINI [SIGLEC12_Y588_YF]	0.632	0.923	0.86	1.04	0.689	0.481	0.5	0.642	1.46	1.14	1.14	3.84	1.69	0.574	1.22	2.77
QLQQAYQEAFE [YWHAZ_Y149_S145L]	0.83	2.03	1.07	2.69	1.6	1.43	1.69	1.23	1.12	1.67	2.59	1.72	3.04	1.29	1.77	1.76
YPLELYERVRI [PRKCG_Y312_M317I]	0.974	1.03	0.736	1.01	0.58	1.9	1.23	0.584	0.493	1.74	1.08	4.38	0.56	0.437	0.895	0.459
APGNAYGDAGF [SYP_Y250_D248N_YF]	0.883	0.469	0.639	0.504	0.443	0.351	0.313	0.339	0.322	0.433	0.527	0.369	0.412	0.348	0.52	0.373

Sequence	SH2 binding enrichment (Grb2 SH2)	SH2 binding enrichment (c-Src SH2)	SH2 binding enrichment (SHP2-C SH2)	phosphorylation enrichment (Fes)	phosphorylation enrichment (c-Abl (mouse))	phosphorylation enrichment (EPHB1)	phosphorylation enrichment (EPHB2)	phosphorylation enrichment (Fyn)	phosphorylation enrichment (c-Src)	phosphorylation enrichment (Hck)	phosphorylation enrichment (AncSZ)	phosphorylation enrichment (Fer (mouse))	phosphorylation enrichment (FGFR3)	phosphorylation enrichment (MERTK)	phosphorylation enrichment (Jak2)	phosphorylation enrichment (FGFR1)
LEDDMYRKTCT [XPA_Y257]	1.04	0.524	0.738	2.56	1.17	1.15	1.03	1.78	0.624	0.984	2.07	1.37	1.67	0.848	1.56	1.24
HGEAVYSRDCV [XPC_Y676_R671H]	1.18	0.586	0.716	0.819	0.66	0.473	0.51	3.49	3.78	2.75	0.697	0.664	0.687	0.89	0.786	0.621
EKQLLYSENKT [FRK_Y132]	0.976	0.55	0.674	0.919	0.563	0.528	0.652	0.465	0.616	0.85	0.732	1.19	0.599	0.766	0.638	0.456
AADGRYEVLFL [SEMA3F_Y478]	0.832	7	0.617	1.01	0.624	0.731	0.683	0.447	0.489	0.792	1.07	2.97	0.822	0.749	1.02	0.62
AEEPIYIIVPA [BMXtide_2014]	1.05	0.83	0.956	2.98	8.02	18.5	24.2	10.1	8.8	7.96	4.75	11.1	12.1	9.02	2.47	13.9
VDEVLYEDSSA [MTHFS_Y197_T202A]	0.834	0.551	0.979	1.16	0.923	0.637	0.577	0.502	0.647	0.716	1.47	2.08	0.609	0.508	1.29	0.679
IVAEFYDNLPH [DEGS1_Y284_A280V_YF]	0.727	0.931	0.695	0.891	0.694	0.517	0.556	0.549	0.733	3.36	0.929	0.978	0.624	0.853	0.792	0.477
PLDNLYAEPAV [PRPS1_Y146_V142L]	0.995	0.486	0.655	1.66	10.6	9.6	12.9	2.13	2.06	4.65	2.72	4.92	1.09	8.88	1.83	0.719
INMKEYCKKDF [NTN1_Y490_K489E_YF]	1.01	0.574	0.65	1.12	0.791	0.66	0.678	0.669	0.476	0.498	0.877	0.427	0.743	0.468	0.937	0.512
RAYRHYLLKQK [SCN2A_Y1919_R1918H]	0.677	0.442	0.51	0.597	0.376	0.334	0.602	0.632	0.583	0.414	0.52	0.332	0.607	0.571	0.47	0.31
EYLQKYKGFKI [SYNE1_Y6953]	0.854	0.551	0.624	0.868	0.569	0.427	0.332	0.275	0.323	0.345	0.733	0.407	0.377	0.438	0.707	0.256
WQQQSYLFSGI [CTNNB1_Y30_D32Y_YF]	1.02	0.641	0.882	0.928	0.765	0.461	0.57	0.454	0.467	0.44	0.977	0.398	0.57	0.414	0.972	0.473
LRNRVYEVPVE [SLC26A3_Y756]	1.25	6.38	0.936	1.25	1.52	1.12	1.54	1.17	1.18	1.37	1.65	4.25	0.757	3.3	2.04	0.584
INPIIYAFVVE [CCR5_Y297_G301V]	0.912	0.402	0.73	1.5	2.37	4.53	3.82	2.42	2.59	1.78	1.25	2.66	1.29	4.13	1.2	1
YAKSVYWENTL [NUP107_Y296]	0.823	1.12	0.894	0.967	0.728	0.584	0.485	0.61	0.871	0.674	1.02	0.492	0.619	0.526	0.821	0.49
FLRKEYGGLNV [CBR3_Y81]	0.667	0.435	0.432	0.618	0.412	0.4	0.519	0.45	0.334	0.404	0.584	0.375	0.437	0.385	0.615	0.393
